Measurements taken from paper PMC3320582, “Group A Streptococcus Secreted Esterase Hydrolyzes Platelet-Activating Factor to Impede Neutrophil Recruitment and Facilitate Innate Immune Evasion” (PLoS Pathogens, 2012).

Substrate: [H][C@@](COCCCCCCCCCCCCCCCC)(COP(=O)([O-])OCC[N+](C)(C)C)SC(C)=O
Test: purified protein
Type: biochemical, Homo sapiens
Settings: PAF acetylhydrolase assay kit; measured as comparison to SsE

B1: human recombinant plasma PAF acetylhydrolase (Homo sapiens) (protein)
chain: FDWQYINPVAHMKSSAWVNKIQVLMAAASFGQTKIPRGNGPYSVGCTDLMFDHTNKGTFLRLYYPSQDNDRLDTLWIPNKEYFWGLSKFLGTHWLMGNILRLLFGSMTTPANWNSPLRPGEKYPLVVFSHGLGAFRTLYSAIGIDLASHGFIVAAVEHRDRSASATYYFKDQSAAEIGDKSWLYLRTLKQEEETHIRNEQVRQRAKECSQALSLILDIDHGKPVKNALDLKFDMEQLKDSIDREKIAVIGHSFGGATVIQTLSEDQRFRCGIALDAWMFPLGDEVYSRIPQPLFFINSEYFQYPANIIKMKKCYSPDKERKMITIRGSVHQNFADFTFATGKIIGHMLKLKGDIDSNVAIDLSNKASLAFLQKHLGLHKDFDQWDCLIEGDDENLIPGTNINTTNQHIMLQNSSGIEKYN
notes: commercial recombinant protein (Cayman Chemical)
Work on B1 yielded a Km of 8.0 µM and a kcat of 15.4 s⁻¹.
